Data on 167 variants can be found in the RNAGym collection of RNA variant scans (doi:10.7554/elife.90254).

To fix the notation:
B1: LINE1-mini (parent)
chain: GGCAGAGCUCAACACAGCGUGGCAAAGUGGCUGUGGCUAGACUGCC

Variants of B1 are the subject of this series. The series is described as follows: self-cleavage, relative activity (ratio to wild type); higher = more cleavage; in vitro, sequencing; the parent is a self-cleaving ribozyme.
For the variant G22A C37A, the self-cleavage is 0.04.
G22A C37G: the self-cleavage worked out at 0.03.
For G22A C37U, the self-cleavage was determined as 0.05.
Then G22A U32G, with 0.14.
In the case of G22A U32C, the self-cleavage is 1.4.
As for G22A U32A, the self-cleavage came to 0.07.
Then G22C U32C, with 0.11.
As for G22C U32G, the figure is 0.2.
As for G22C U32A, the figure is 0.04.
In the case of G22C U34C, the self-cleavage is 0.17.
As to G22C U34G, the self-cleavage is 0.17.
As to G22C U34A, the self-cleavage is 0.09.
As for G22U G33A, the figure is 0.63; as for G22U G33C, 0.07; as for G22C A41G, 0.23.
Then G22C A41U, with 0.72.
In the case of G22C A41C, the self-cleavage came to 0.05.
On to G22U C42U, for which the self-cleavage worked out at 0.39.
Then G22U C42A, with 0.28.
Then G22U C42G, with 0.04; and G21C G44C, with 0.4.
In the case of G21C G44A, the self-cleavage was determined as 0.34.
Regarding G21C G44U, the self-cleavage was 0.28.
Turning to G22A U43A, the self-cleavage amounted to 0.06.
Then G22A U43C, with 0.07.
Then G22A U43G, with 0; and G21U G40C, with 0.11.
Take G21U G40U: the self-cleavage turned out to be 0.18.
For G21U G40A, the self-cleavage was found to be 0.29.
As for G21C C31A, the figure is 0.19; as for G21C C31U, 0.3; as for G21C C31G, 0.09.
As for G21U U28C, the figure is 0.92; as for G21U U28A, 0.51; as for G21U U28G, 0.52.
Turning to G22A G27A, the self-cleavage is 0.51.
Then G22A G27C, with 0.9; and G22A G27U, with 0.75.
As for G22U G27A, the figure is 1.04; as for G22U G27U, 1.46; as for G22U G27C, 0.57.
Then G21C U28A, with 0.3; and G21C U28C, with 1.39.
With G21C U28G, the self-cleavage worked out at 0.45.
For the variant G21U G35C, the self-cleavage was 0.13.
As for G21U G35A, the self-cleavage is 0.16.
Regarding G21U G35U, the self-cleavage turned out to be 0.22.
With G22C G30C, the self-cleavage is 1.94.
For G22C G30A, the self-cleavage amounted to 0.76.
For the variant G22C G30U, the self-cleavage was 0.53.
As for G22U C31A, the self-cleavage was 0.2.
As for G22U C31U, the figure is 0.4; as for G22U C31G, 0.22.
Then G22A G30A, with 1.24.
For G22A G30U, the self-cleavage worked out at 0.96.
For G21U G27A, the self-cleavage is 0.45.
Then G21U G27C, with 0.54; and G21U G27U, with 0.54; and G22C A26G, with 0.87.
As for G22C A26U, the figure is 0.82; as for G22C A26C, 2.46.
As for G22A C46G, the self-cleavage was determined as 1.22.
As for G22A C46U, the figure is 0.84; as for G22A C46A, 1.03; as for G21U C46G, 1.29.
Take G21U C46A: the self-cleavage turned out to be 1.14.
G21U C46U: the self-cleavage amounted to 1.13.
Then G22A A41C, with 0.09; and G22A A41U, with 0.66.
Consider G22A A41G, for which the self-cleavage is 0.31.
As for G21U U43G, the figure is 0.07; as for G21U U43C, 0.2.
G21U U43A: the self-cleavage turned out to be 0.08.
As for G22C A24U, the figure is 0.52; as for G22C A24G, 0.74; as for G22C A24C, 0.85.
Then G21U A39C, with 0.28; and G21U A39G, with 0.08; and G21U A39U, with 0.63.
Regarding G22U A41G, the self-cleavage worked out at 0.37.
As for G22U A41C, the figure is 0.04; as for G22U A41U, 0.72.
Then G22A G29U, with 0.65; and G22A G29C, with 0.21; and G22A G29A, with 0.27.
For G22C C31U, the self-cleavage was 0.26.
Then G22C C31A, with 0.14; and G22C C31G, with 0.08.
Then G21U G33C, with 0.08; and G21U G33U, with 0.17.
In the case of G21U G33A, the self-cleavage stood at 0.26.
With G21C C46G, the self-cleavage came out at 0.51.
On to G21C C46U, for which the self-cleavage is 0.83.
On to G21C C46A, for which the self-cleavage came to 1.13.
As for G22C G33A, the figure is 0.07.
As for G22C G33C, the figure is 0.06; as for G22C G33U, 0.06; as for G21C A26U, 1.57.
As for G21C A26C, the figure is 1.03.
Turning to G21C A26G, the self-cleavage stood at 0.35.
Then G21C G35C, with 0.08.
Then G21C G35U, with 0.16; and G21C G35A, with 0.16; and G22A G35U, with 0.14.
Then G22A G35A, with 0.23.
Turning to G22A G35C, the self-cleavage worked out at 0.12.
In the case of G22C C23G, the self-cleavage is 0.28.
As to G22C C23A, the self-cleavage amounted to 0.92.
In the case of G22C C23U, the self-cleavage amounted to 0.64.
Then G22C G35U, with 0.15; and G22C G35A, with 0.14.
In the case of G22C G35C, the self-cleavage stood at 0.08.
For the variant G22A A26C, the self-cleavage came to 0.79.
Then G22A A26U, with 0.76; and G22A A26G, with 1.31.
Then G22U G29C, with 0.84.
With G22U G29A, the self-cleavage is 1.67.
As for G22U G29U, the self-cleavage was determined as 0.72.
As for G22C G36A, the figure is 0.05.
In the case of G22C G36U, the self-cleavage amounted to 0.1.
In the case of G22C G36C, the self-cleavage stood at 0.25.
As for G21C G22U, the figure is 0.46; as for G21C G22A, 0.48; as for G21C G22C, 0.57.
Then G22A C45U, with 1.44; and G22A C45A, with 0.67; and G22A C45G, with 0.32.
On to G22U A39C, for which the self-cleavage was found to be 0.14.
As to G22U A39U, the self-cleavage amounted to 1.
Take G22U A39G: the self-cleavage worked out at 0.08.
Then G22C C46U, with 0.65.
For the variant G22C C46A, the self-cleavage was found to be 0.61.
G22C C46G: the self-cleavage amounted to 0.13.
Then G22A C23U, with 1.14; and G22A C23G, with 0.47; and G22A C23A, with 0.42.
As to G21C U38A, the self-cleavage is 0.21.
On to G21C U38G, for which the self-cleavage is 0.02.
Then G21C U38C, with 0.48.
Consider G22A U38C, for which the self-cleavage was 0.68.
With G22A U38G, the self-cleavage came out at 0.01.
Then G22A U38A, with 0.33.
As for G21U G44A, the figure is 0.53; as for G21U G44C, 0.25.
Then G21U G44U, with 0.5.
For the variant G22A A39C, the self-cleavage came out at 0.09.
Then G22A A39G, with 0.17; and G22A A39U, with 0.5; and G21C G29C, with 0.55.
With G21C G29U, the self-cleavage worked out at 0.48.
On to G21C G29A, for which the self-cleavage is 0.5.
In the case of G22A G44A, the self-cleavage was 0.97.
Regarding G22A G44U, the self-cleavage came to 0.34.
As for G22A G44C, the self-cleavage was determined as 0.23.
Turning to G21U C31A, the self-cleavage was determined as 0.19.
On to G21U C31U, for which the self-cleavage amounted to 0.3.
Then G21U C31G, with 0.08; and G21U A26U, with 1.93; and G21U A26G, with 1.29.
As for G21U A26C, the figure is 1.29.
Take G22C G44C: the self-cleavage worked out at 0.41.
As for G22C G44A, the figure is 0.13; as for G22C G44U, 0.4; as for G22A A24C, 0.48.
As for G22A A24U, the self-cleavage is 0.75.
Regarding G22A A24G, the self-cleavage came out at 1.53.
Then G21U A41C, with 0.06.
